The values that follow come from the supplement of paper PMC10567573.

B1: FBF1 (parent)
chain: YQRPQDSEDMWGDEDFTFGAYQPT
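Further: lentivirally expressed fusions sorted by FACS into six bins by GFP to DsRed ratio, PSI derived from sequencing read proportions per bin multiplied by bin number.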

The variants in the data set derive from B1. Description: protein stability index of a GFP-peptide fusion (GPS, HEK-293T) (PSI 1-6); higher = more stable. As to conditions: c terminus: a fixed tail appended.
As to YQRPQDSEDWWGDEDFTFGAYQPT [M10W], the protein stability index stood at 2.81.

As to YQRPQDSEDYWGDEDFTFGAYQPT [M10Y], the protein stability index was determined as 3.11. For the variant YQRPQDSEDMWGDADFTFGAYQPT [E14A], the protein stability index is 1.67.

For the variant YQRPQDSEDMWGDTDFTFGAYQPT [E14T], the protein stability index is 2.15.

In the case of YQRPQDSEDMWGDWDFTFGAYQPT [E14W], the protein stability index was determined as 2.21.

YQRPQDSEDMWGDPDFTFGAYQPT [E14P]: the protein stability index was 2.03. Consider YQRPQDSEDMWGDLDFTFGAYQPT [E14L], for which the protein stability index came out at 1.66.

As to YQRPQDSEDMWGDYDFTFGAYQPT [E14Y], the protein stability index was found to be 2.27. Take YQRPQDSEDMWGDQDFTFGAYQPT [E14Q]: the protein stability index is 1.94. For the variant YQRPQDSEDMWGDNDFTFGAYQPT [E14N], the protein stability index was determined as 1.8. For YQRPQDSEDMWGDSDFTFGAYQPT [E14S], the protein stability index is 2.43. Take YQRPQDSEDMWGDVDFTFGAYQPT [E14V]: the protein stability index is 2.36.

As for YQRPQDSEDMWGDDDFTFGAYQPT [E14D], the protein stability index was determined as 2.58.

On to YQRPQDSEDMWGDMDFTFGAYQPT [E14M], for which the protein stability index was determined as 1.26. In the case of YQRPQDSEDMWGDIDFTFGAYQPT [E14I], the protein stability index was found to be 1.82. Consider YQRPQDSEDMWGDGDFTFGAYQPT [E14G], for which the protein stability index came out at 1.88. On to YQRPQDSEDMWGDFDFTFGAYQPT [E14F], for which the protein stability index was determined as 1.78. In the case of YQRPQDSEDMWGDRDFTFGAYQPT [E14R], the protein stability index amounted to 2.05.

Regarding YQRPQDSEDMWGDHDFTFGAYQPT [E14H], the protein stability index turned out to be 2.84. As for YQRPQDSEDMWGDKDFTFGAYQPT [E14K], the protein stability index is 1.46. On to YQRPQDSEDMWGDCDFTFGAYQPT [E14C], for which the protein stability index came out at 2.11. In the case of YQRPQDSEDMWGSEDFTFGAYQPT [D13S], the protein stability index was found to be 1.85. YQRPQDSEDMWGHEDFTFGAYQPT [D13H]: the protein stability index amounted to 1.76.

On to YQRPQDSEDMWGREDFTFGAYQPT [D13R], for which the protein stability index was 2.89.

Regarding YQRPQDSEDMWGFEDFTFGAYQPT [D13F], the protein stability index amounted to 2.18. As for YQRPQDSEDMWGQEDFTFGAYQPT [D13Q], the protein stability index was found to be 1.79.

In the case of YQRPQDSEDMWGKEDFTFGAYQPT [D13K], the protein stability index amounted to 2.52. Turning to YQRPQDSEDMWGAEDFTFGAYQPT [D13A], the protein stability index stood at 2.1. Turning to YQRPQDSEDMWGPEDFTFGAYQPT [D13P], the protein stability index amounted to 1.73. Regarding YQRPQDSEDMWGVEDFTFGAYQPT [D13V], the protein stability index came to 1.8. Consider YQRPQDSEDMWGYEDFTFGAYQPT [D13Y], for which the protein stability index is 1.72.

In the case of YQRPQDSEDMWGLEDFTFGAYQPT [D13L], the protein stability index was 2.45. In the case of YQRPQDSEDMWGCEDFTFGAYQPT [D13C] it was 1.74; in that of YQRPQDSEDMWGEEDFTFGAYQPT [D13E], 3.13. YQRPQDSEDMWGMEDFTFGAYQPT [D13M]: the protein stability index is 2.32. Take YQRPQDSEDMWGGEDFTFGAYQPT [D13G]: the protein stability index is 2.28.

On to YQRPQDSEDMWGTEDFTFGAYQPT [D13T], for which the protein stability index worked out at 1.77.

In the case of YQRPQDSEDMWGNEDFTFGAYQPT [D13N], the protein stability index came to 2.07. In the case of YQRPQDSEDMWGWEDFTFGAYQPT [D13W] it was 1.53. On to YQRPQDSEDMWGIEDFTFGAYQPT [D13I], for which the protein stability index amounted to 2.13. The value for YQRPQDSEDMGGDEDFTFGAYQPT [W11G] was 4.67; that for YQRPQDSEDMQGDEDFTFGAYQPT [W11Q] was 4.78; that for YQRPQDSEDMDGDEDFTFGAYQPT [W11D] was 4.54. In the case of YQRPQDSEDMKGDEDFTFGAYQPT [W11K] it was 4.27; in that of YQRPQDSEDMPGDEDFTFGAYQPT [W11P], 4.87; in that of YQRPQDSEDMNGDEDFTFGAYQPT [W11N], 4.44.

YQRPQDSEDMHGDEDFTFGAYQPT [W11H]: the protein stability index was 4.54. Take YQRPQDSEDMAGDEDFTFGAYQPT [W11A]: the protein stability index was found to be 4.45.

Consider YQRPQDSEDMTGDEDFTFGAYQPT [W11T], for which the protein stability index was 4.33. As to YQRPQDSEDMYGDEDFTFGAYQPT [W11Y], the protein stability index turned out to be 3.74. The value for YQRPQDSEDMRGDEDFTFGAYQPT [W11R] was 4.43; that for YQRPQDSEDMLGDEDFTFGAYQPT [W11L] was 4.13; that for YQRPQDSEDMFGDEDFTFGAYQPT [W11F] was 3.83. YQRPQDSEDMSGDEDFTFGAYQPT [W11S]: the protein stability index worked out at 4.79.

YQRPQDSEDMEGDEDFTFGAYQPT [W11E]: the protein stability index is 4.5. Take YQRPQDSEDMVGDEDFTFGAYQPT [W11V]: the protein stability index was determined as 4.25. For YQRPQDSEDMCGDEDFTFGAYQPT [W11C], the protein stability index was determined as 4.55. For the variant YQRPQDSEDMIGDEDFTFGAYQPT [W11I], the protein stability index was determined as 4.19.

As for YQRPQDSEDMMGDEDFTFGAYQPT [W11M], the protein stability index amounted to 4.13. As to YQRPQDSEDMWSDEDFTFGAYQPT [G12S], the protein stability index worked out at 3.13. In the case of YQRPQDSEDMWYDEDFTFGAYQPT [G12Y], the protein stability index was found to be 2.55. In the case of YQRPQDSEDMWFDEDFTFGAYQPT [G12F], the protein stability index was 2.41. For YQRPQDSEDMWQDEDFTFGAYQPT [G12Q], the protein stability index was 3.13. For YQRPQDSEDMWDDEDFTFGAYQPT [G12D], the protein stability index turned out to be 4.15. The value for YQRPQDSEDMWWDEDFTFGAYQPT [G12W] was 2.71; that for YQRPQDSEDMWKDEDFTFGAYQPT [G12K] was 2.37. The value for YQRPQDSEDMWEDEDFTFGAYQPT [G12E] was 3.71; that for YQRPQDSEDMWLDEDFTFGAYQPT [G12L] was 2.28. YQRPQDSEDMWMDEDFTFGAYQPT [G12M]: the protein stability index is 3.12. Consider YQRPQDSEDMWPDEDFTFGAYQPT [G12P], for which the protein stability index is 3.79. YQRPQDSEDMWCDEDFTFGAYQPT [G12C]: the protein stability index was determined as 2.28.

Turning to YQRPQDSEDMWNDEDFTFGAYQPT [G12N], the protein stability index was found to be 3.17. Turning to YQRPQDSEDMWADEDFTFGAYQPT [G12A], the protein stability index amounted to 2.92. The value for YQRPQDSEDMWVDEDFTFGAYQPT [G12V] was 2.48. With YQRPQDSEDMWTDEDFTFGAYQPT [G12T], the protein stability index stood at 2.55.

Regarding YQRPQDSEDMWRDEDFTFGAYQPT [G12R], the protein stability index worked out at 2.96. The value for YQRPQDSEDMWIDEDFTFGAYQPT [G12I] was 2.43.

Take YQRPQDSEDMWHDEDFTFGAYQPT [G12H]: the protein stability index is 2.85. For the variant YQRPQDSEDMWGDELFTFGAYQPT [D15L], the protein stability index is 2.04. For the variant YQRPQDSEDMWGDERFTFGAYQPT [D15R], the protein stability index turned out to be 2.15. In the case of YQRPQDSEDMWGDEAFTFGAYQPT [D15A], the protein stability index is 2.31.

Take YQRPQDSEDMWGDEKFTFGAYQPT [D15K]: the protein stability index is 1.73. For YQRPQDSEDMWGDEFFTFGAYQPT [D15F], the protein stability index was 1.52. As to YQRPQDSEDMWGDEMFTFGAYQPT [D15M], the protein stability index was determined as 1.9. As to YQRPQDSEDMWGDEPFTFGAYQPT [D15P], the protein stability index came out at 2.45. As for YQRPQDSEDMWGDEQFTFGAYQPT [D15Q], the protein stability index was 2.41. The value for YQRPQDSEDMWGDECFTFGAYQPT [D15C] was 1.77; that for YQRPQDSEDMWGDETFTFGAYQPT [D15T] was 2.43; that for YQRPQDSEDMWGDENFTFGAYQPT [D15N] was 2.13. On to YQRPQDSEDMWGDEGFTFGAYQPT [D15G], for which the protein stability index was found to be 2.13. On to YQRPQDSEDMWGDEHFTFGAYQPT [D15H], for which the protein stability index is 2.05. Turning to YQRPQDSEDMWGDEEFTFGAYQPT [D15E], the protein stability index amounted to 2.75. In the case of YQRPQDSEDMWGDEIFTFGAYQPT [D15I] it was 2.11; in that of YQRPQDSEDMWGDESFTFGAYQPT [D15S], 2.16.
